Assay [1] concerns the target T1, FcRn (analyte in the Biacore T200 study) (human, UniProt P55899 24-297; P61769 21-119, limits assumed).
T1 construct: also called human FcRn
Nature of the assay: SPR Biacore T200, antibody amine-coupled to CM5, FcRn analyte, 1:1 model; pH not stated. The procedure:
(§1) Antibodies were immobilized onto a Series S CM5 sensor chip surface using standard amine coupling chemistry and analyte (FcRn) flowed over the surface. A 2-fold dilution range was selected from 50-0.01 nM FcRn. The association phase of FcRn analyte was monitored for 450 seconds, and dissociation was initially measured for either 250 or 2500 seconds, at 40 μl/min Fc1 was a reference channel and was subtracted from other flow cells to correct for non-specific binding. […] Kinetic values are based on a 1:1 binding model (Table 5).

The target of assay [2] is T2, monomeric His-tagged hFcRn (human, UniProt P55899 24-297; P61769 21-119, limits assumed).
T2 construct: also called human FcRn; not shown: His tag
Description: SPR Biacore 3000, antibody amine-coupled to CM5, His-tagged hFcRn analyte, pH 6.0, 25 C, 1:1 Langmuir. How it is done:
(§2) The coupling was performed by injecting 2 μg/ml of each protein into 10 mM sodium acetate, pH 4.5 (GE Healthcare), using the amine coupling kit (GE Healthcare). HBS-P buffer pH 7.4 (0.01 M HEPES, 0.15 M NaCl, 0.005% surfactant P20) or phosphate buffer pH 6.0 (67 mM phosphate buffer, 0.15 M NaCl, 0.005% Tween 20) were used as running buffer and dilution buffer. […] All SPR experiments were conducted at 25° C. with a flow rate of 40 μl/min Binding data were zero-adjusted, and the reference cell value subtracted. The Langmuir 1:1 ligand binding model provided by the BIAevaluation software (version 4.1) was used to determine the binding kinetics. The closeness of the fit is described by the statistical value χ².
For orientation: In SPR one partner is held on a chip, and binding of the other changes the refractive index at the surface.

Assay [3] addresses T3, recombinant human FcRn (Sino Biological Inc. Cat. No. CT009-H08H) (human, UniProt P55899 24-297; P61769 21-119).
T3 construct: also called immobilized FcRn
Nature of the assay: competition ELISA, pH 6.0: test IgG4 (stable NS0) titrated against fixed biotinylated murine parent antibody on recombinant human FcRn; streptavidin-HRP/TMB, OD450 [bottom panel]. How it is done: (§3) The IgG4 antibodies were tested for antigen binding in a competition ELISA at pH 6.0 and pH 7.4. A Nunc Immuno MaxiSorp 96 well flat bottom microtitre plate (Fisher, cat. no. DIS-971-030J) was pre-coated with 1 μg/ml of an FcRn antibody specific for an IgG-binding epitope distinct from the albumin-binding region overnight at pH 7.4. The following day, 1 μg/ml recombinant human FcRn (Sino Biological Inc. cat. no. CT009-H08H) diluted in PBS pH 7.4 was added to the wells and incubated for 1 hour at 37° C. After washing the plates 3× with PBST pH 7.4, the plates were blocked with PBSM pH 7.4 for 1 hour at 37° C. From this point onwards, all wash and incubation steps were performed at the chosen assay pH (pH 6.0 or 7.4). […] The reaction was stopped with 3 M HCl, absorbance read at 450 nm on a Dynex Technologies MRX TC II plate reader and the binding curves plotted.
(§4) NS0 produced humanized affinity matured IgGs were used in all assays other than G50_C10/Vκ3), which was purified from transiently expressing HEK cells.
(In an ELISA, binding on a coated surface is turned into a signal by an enzyme label.)

Assay [4] addresses T3, recombinant human FcRn (Sino Biological …). Nature of the assay: competition ELISA, pH 7.4: test IgG4 (stable NS0) titrated against fixed biotinylated murine parent antibody on recombinant human FcRn; streptavidin-HRP/TMB, OD450 [bottom panel]. The procedure: as §3, §4
For assay [5] the target is unchanged. Nature of the assay: competition ELISA, pH 7.4: test IgG4 (stable NS0) titrated against fixed biotinylated murine parent antibody on recombinant human FcRn; streptavidin-HRP/TMB, OD450 [middle panel]. How it is done:
as §3, §4

Assay [6] has the same target. Nature of the assay: competition ELISA, pH 6.0: test IgG4 (stable NS0) titrated against fixed biotinylated murine parent antibody on recombinant human FcRn; streptavidin-HRP/TMB, OD450 [middle panel]. The procedure: as §3, §4
Assay [7] addresses T1, FcRn (analyte in the Biacore T200 study). Description: SPR Biacore T200, antibody amine-coupled to CM5, FcRn analyte, 1:1 model; chip with the three best variants (repeat run, dissociation 4500 s per paragraph 156); pH not stated. The procedure: as §1
Assay [8] concerns the target T2, monomeric His-tagged hFcRn. Description: SPR Biacore 3000, antibody amine-coupled to CM5, His-tagged hFcRn analyte, pH 7.4, 25 C, 1:1 Langmuir. How it is done: as §2
The kinetic rate constants were obtained using a simple first-order (1:1) Langmuir bimolecular interaction model. The kinetic values represent the average of duplicates. The χ² (chi-square) values represent the fit to the binding model used.

In assay [9] the target is T3, recombinant human FcRn (Sino Biological …). Description: competition ELISA, pH 6.0; competitor biotinylated parent murine antibody; captured recombinant human FcRn; NS0-expressed IgG4. How it is done: as §3, §4
The target of assay [10] is T1, FcRn (analyte in the Biacore T200 study). Nature of the assay: SPR Biacore T200; KD of humanized parent VH1/Vκ1 divided by KD of the test antibody on the same chip. The procedure: as §1
Assay [11] concerns the target T3, recombinant human FcRn (Sino Biological …). Description: competition ELISA, pH 6.0; competitor biotinylated parent murine antibody; captured recombinant human FcRn; HEK-expressed IgG4. How it is done: as §3
For assay [12] the target is unchanged. Description: competition ELISA, pH 7.4; competitor biotinylated parent murine antibody; captured recombinant human FcRn; HEK-expressed IgG4. How it is done: as §3
Assay [13] has the same target. Description: competition ELISA, pH 7.4; competitor biotinylated parent murine antibody; captured recombinant human FcRn; NS0-expressed IgG4. How it is done: as §3, §4
Assay [14] has the same target. Description: competition ELISA, pH 7.4: test IgG4 (transient HEK) titrated against fixed biotinylated murine parent antibody on recombinant human FcRn; streptavidin-HRP/TMB, OD450. How it is done:
as §3

Assay [15] has the same target. Description: competition ELISA, pH 6.0: test IgG4 (stable NS0) titrated against fixed biotinylated murine parent antibody on recombinant human FcRn; streptavidin-HRP/TMB, OD450 [top panel]. The procedure:
as §3, §4

Assay [16] shares this target. Description: competition ELISA, pH 7.4: test IgG4 (stable NS0) titrated against fixed biotinylated murine parent antibody on recombinant human FcRn; streptavidin-HRP/TMB, OD450 [top panel]. The procedure:
as §3, §4

Assay [17] concerns the target T1, FcRn (analyte in the Biacore T200 study). Description: SPR Biacore T200, antibody amine-coupled to CM5, FcRn analyte, 1:1 model; chip with the three best variants (repeat run, dissociation 4500 s per paragraph 156); pH not stated; repeat run of the three best variants, dissociation 4500 s. How it is done:
as §1

Changes are numbered by the printed parent chain. Names and notes keep the numbering of the source.

The term Kd denotes a measure of binding affinity in units of concentration. A word on the koff: it is the rate constant with which the complex falls apart. High values mean fast dissociation, low ones slow dissociation. A word on the kon: it is the rate constant with which the complex forms. The low end stands for slow association, the high end for fast association.

T1 sequence (P55899 24-297 limits assumed, chain 1 of 2): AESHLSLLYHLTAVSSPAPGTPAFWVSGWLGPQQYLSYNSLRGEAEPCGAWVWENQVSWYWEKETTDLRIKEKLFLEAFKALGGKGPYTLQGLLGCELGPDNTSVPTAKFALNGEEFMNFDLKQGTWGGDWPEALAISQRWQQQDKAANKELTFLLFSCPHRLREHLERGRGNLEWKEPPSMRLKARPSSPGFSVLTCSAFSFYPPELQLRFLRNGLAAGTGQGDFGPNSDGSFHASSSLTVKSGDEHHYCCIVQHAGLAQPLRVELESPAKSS
T1 sequence (P61769 21-119 limits assumed, chain 2 of 2): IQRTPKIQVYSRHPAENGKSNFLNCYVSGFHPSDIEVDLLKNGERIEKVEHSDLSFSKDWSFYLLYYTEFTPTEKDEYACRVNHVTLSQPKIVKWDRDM
T3 sequence (P55899 24-297 limits assumed, chain 1 of 2): as the sequence (P55899 24-297 limits assumed, chain 1 of 2) above
T3 sequence (P61769 21-119 limits assumed, chain 2 of 2): as the sequence (P61769 21-119 limits assumed, chain 2 of 2) above
T2 sequence (P55899 24-297 limits assumed, chain 1 of 2): as the sequence (P55899 24-297 limits assumed, chain 1 of 2) above
T2 sequence (P61769 21-119 limits assumed, chain 2 of 2): as the sequence (P61769 21-119 limits assumed, chain 2 of 2) above

B1: G49_H9.3/Vκ3 (antibody, V domains shown)
VH: EVQLVESGGGLVKPGGSLKLSCAASGFTFSDYGMHWVRQAPGKGLEWVAYISSGSSTIYYADTVKGRFTISRDNAKNTLYLQMNSLRAEDTAMYYCARFDSLSTVGDYWGQGTSVTVSS
VL: DIVMTQSPDSLSASVGDRVTITCKASQSVSNDVAWYQQKPGQPPKLLIYYASNRYTGVPDRFSGSGYGTDFTLTISSLQAEDVAVYFCQQDYSSLTFGQGTKLEIK
notes: Bivalent IgG4 with S241P, human kappa; also called SYNT002-21; G49_H9.3 VH1
For B1, the values for the Kd in assay [1] and in assay [2] were 1.11 nM and 1.7 nM, respectively. Moreover, the “IC50 (read off the curve)” value is about 0.2 µg/mL in assay [3] and about 0.5 µg/mL in assay [4].

B2: G15_C3/Vκ3 (antibody, V domains shown)
VH: B1 VH with F99G, D100E, L102T, S103T
VL: B1 VL
notes: Bivalent IgG4 with S241P, human kappa; also called SYNT002-3; G15_C3 VH1
As to B2, the “IC50 (read off the curve)” value was about 0.5 µg/mL in assay [5] and about 0.3 µg/mL in assay [6]. Further, the Kd in [2] came to 0.7 nM; in [7], 0.39 nM; in assay [8], 7.8 nM.

B3: G47_H6/Vκ3 (antibody, IgG4, V domains shown)
VH: B1 VH with D100S
VL: B1 VL
notes: IgG4 with S241P, human kappa; also called G47_H6 VH1
Regarding B3, the “Average relative IC50 (relative to humanized parent)” value in [9] worked out at 0.84; in assay [11], 0.8; in assay [12], 0.7; in [13], 0.89. Further, in assay [10], the “Fold difference in KD” value amounted to 1.2 fold. The molecule also gave a Kd in assay [1] of 2.09 nM. In assay [1], this molecule registered a koff of 0.000814 s⁻¹. The molecule further came in with a kon in assay [1] of 389000 M⁻¹ s⁻¹.

B4: G49_H9.5/Vκ3 (antibody, V domains shown)
VH: B1 VH with F99L, D100E, S101A, L102V, T104A
VL: B1 VL
notes: Bivalent IgG4 with S241P, human kappa; also called G49_H9.5 VH1
On to B4, for which the “Average relative IC50 (relative to humanized parent)” value in assay [9] amounted to 0.8; in [11] it was 0.8; in assay [13], 0.87. The molecule also yielded a Kd in assay [1] of 1.21 nM.

B5: G52_G9/Vκ3 (antibody, V domains shown)
VH: B1 VH with S101T, L102P
VL: B1 VL
notes: Bivalent IgG4 with S241P, human kappa; also called G52_G9 VH1
Molecule B5 had a Kd in assay [1] of 1.99 nM. That is a single-digit nanomolar value.

B6: G47_B10/Vκ3 (antibody, V domains shown)
VH: B1 VH with F99A, D100E, L102T, S103T
VL: B1 VL
notes: Bivalent IgG4 with S241P, human kappa; also called SYNT002-8; G47_B10VH1_Vκ3
Turning to B6, the “IC50 (read off the curve)” value in assay [14] is about 0.2 µg/mL; in assay [15], about 0.3 µg/mL; in [16], about 0.5 µg/mL. In addition, the Kd in assay [1] worked out at 0.33 nM; in assay [2], 0.6 nM; in [17], 0.24 nM; in assay [8] it was 4 nM.

B7: G54_D11/Vκ3 (antibody, V domains shown)
VH: B1 VH with S101T, L102P, S103A
VL: B1 VL
notes: Bivalent IgG4 with S241P, human kappa; also called SYNT002-17; G54_D11 VH1
In the case of B7, the figures for the Kd in assay [1] and in assay [8] were 3.71 nM and 34 nM, respectively. In addition, in assay [3], the “IC50 (read off the curve)” value was about 0.3 µg/mL.

The record behind these values is patent US20190135915A1 (SYNTIMMUNE, published 2019).
